T1: TG2 (transglutaminase 2), His6-tagged (Homo sapiens, UniProt P21980 1-687)
T1 sequence: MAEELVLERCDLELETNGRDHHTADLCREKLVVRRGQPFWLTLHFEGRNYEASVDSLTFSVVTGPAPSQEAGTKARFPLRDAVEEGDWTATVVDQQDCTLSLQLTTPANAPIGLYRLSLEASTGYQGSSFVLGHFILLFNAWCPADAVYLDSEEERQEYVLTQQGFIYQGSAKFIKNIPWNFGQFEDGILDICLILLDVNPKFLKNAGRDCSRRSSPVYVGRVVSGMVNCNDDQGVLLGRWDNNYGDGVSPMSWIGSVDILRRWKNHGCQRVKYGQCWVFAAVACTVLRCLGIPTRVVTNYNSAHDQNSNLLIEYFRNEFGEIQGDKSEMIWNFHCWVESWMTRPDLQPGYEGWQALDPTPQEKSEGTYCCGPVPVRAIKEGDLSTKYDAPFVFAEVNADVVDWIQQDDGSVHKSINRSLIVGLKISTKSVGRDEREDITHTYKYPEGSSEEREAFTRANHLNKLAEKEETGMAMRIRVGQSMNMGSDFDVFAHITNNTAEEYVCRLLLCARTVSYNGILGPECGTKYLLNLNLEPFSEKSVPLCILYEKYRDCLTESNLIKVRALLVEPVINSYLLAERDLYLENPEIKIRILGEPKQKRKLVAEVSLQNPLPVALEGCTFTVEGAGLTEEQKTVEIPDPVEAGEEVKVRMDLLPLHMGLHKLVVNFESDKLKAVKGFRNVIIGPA

T2: TG2 (transglutaminase 2), tag-free (Homo sapiens, UniProt P21980 1-687)
T2 sequence: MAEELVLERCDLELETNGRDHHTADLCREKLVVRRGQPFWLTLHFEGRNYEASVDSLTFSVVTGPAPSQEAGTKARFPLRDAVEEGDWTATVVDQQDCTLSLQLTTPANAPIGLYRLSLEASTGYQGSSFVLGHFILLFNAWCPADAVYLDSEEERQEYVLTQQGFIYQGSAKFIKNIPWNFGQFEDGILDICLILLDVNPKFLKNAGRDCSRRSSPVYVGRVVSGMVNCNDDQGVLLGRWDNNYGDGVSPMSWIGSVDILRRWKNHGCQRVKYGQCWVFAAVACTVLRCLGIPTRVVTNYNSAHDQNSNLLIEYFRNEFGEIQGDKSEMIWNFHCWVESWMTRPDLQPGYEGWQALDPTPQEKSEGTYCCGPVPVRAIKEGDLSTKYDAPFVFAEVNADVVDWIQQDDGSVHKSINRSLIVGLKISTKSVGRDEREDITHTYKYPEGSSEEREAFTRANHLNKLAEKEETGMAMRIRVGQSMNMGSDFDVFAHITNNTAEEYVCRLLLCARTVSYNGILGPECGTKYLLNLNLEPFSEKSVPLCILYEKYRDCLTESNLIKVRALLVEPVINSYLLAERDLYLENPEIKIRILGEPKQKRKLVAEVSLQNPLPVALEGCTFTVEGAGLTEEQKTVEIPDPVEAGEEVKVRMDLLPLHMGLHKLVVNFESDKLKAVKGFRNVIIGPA


Legend:
[1] = target: T1, TG2 (transglutaminase 2), His6-tagged; experiment: pull-down
[2] = target: T2, TG2 (transglutaminase 2), tag-free; experiment: BLI

Binder | binding result [1] | Kd [2]
GGGGGGAGGGGGGAGGGGGGAGGGGGGAGGGGGGAGGGGGGAGGGGGGA (ssDNA) [poly(dG) 3' End Biotin] | binds | 
CCUGGUUUUUAAGGAGUGUCGCCAGAGUGCCGCGAAUGAAAAAC (structured_RNA) [43-mer RNA 3' End Biotin] |  | 88 nM
AAAAAAAAAAAAAAAAAAAAAAAAAAAAAAAAAAAAAAAAAAAAAAAAA (ssDNA) [poly(dA) 3' End Biotin] | no binding | 

From publication doi:10.1101/2024.04.26.591323
